Publication PMC3179936

Target: recombinant leucyl aminopeptidase of T. cruzi (rLAPTc), N-terminal His-tag (Trypanosoma cruzi)
Assay: AUC + SEC; sedimentation velocity of rLAPTc at 170, 56 and 10 μM, 25 mM Tris pH 8.0, 150 mM NaCl, 10°C, 42,000 rpm; s-values combined with Stokes radii from calibrated SEC (SEC-AUC method)

Substance “recombinant leucyl aminopeptidase of T. cruzi (rLAPTc), N-terminal His-tag (enzyme)” has a stoichiometry N (species eluting at 9 ml) of 10.1 subunits and a stoichiometry N (species eluting at 10 ml) of 5.6 subunits.
